Measured values as given in the FLAb antibody collection (doi:10.1101/2023.12.08.570889).
Substitutions are numbered along the chain they refer to. One block for each binder: values may come before it.

Biological target: FXI
Experiment: Kd (SPR)

B1: unnamed (protein)
chain 1: EVQLLESGGGLVQPGGSLRLSCAASGFTFSQYGMDWVRQAPGKGLEWVSGIGPSGGSTVYADSVKGRFTISRDNSKNTLYLQMNSLRAEDTAVYYCARDGSAYYYAFDVWGQGTTVTVSS
chain 2: DIQMTQSPSSLSASVGDRVTITCQASQDISNYLNWYQQKPGKAPKLLIYDASNLETGVPSRFSGSGSGTDFTFTISSLQPEDIATYYCQQADSFPVTFGGGTKVEIK
Kd: 270 nM

B2: unnamed (protein)
chain 1: B1 chain 1 with A97T, S101G
chain 2: B1 chain 2
Kd: 135 nM

B4: unnamed (protein)
chain 1: B1 chain 1 with D99G, S101P, V109I
chain 2: B1 chain 2
Kd: 430 nM

B7: unnamed (protein)
chain 1: B1 chain 1 with A97T, S101P, V109Y
chain 2: B1 chain 2
Kd: 147 nM

B9: unnamed (protein)
chain 1: B1 chain 1 with A97T, D99G, S101P, V109Y
chain 2: B1 chain 2
Kd: 306 nM

B13: unnamed (protein)
chain 1: B1 chain 1 with S101P, A106G
chain 2: B1 chain 2
Kd: 175 nM

B14: unnamed (protein)
chain 1: B1 chain 1 with A97T, D99G, S101P, A106G, V109Y
chain 2: B1 chain 2
Kd: 148 nM

B17: unnamed (protein)
chain 1: B1 chain 1 with A97T, S101R, A102S
chain 2: B1 chain 2
Kd: 750 nM

B19: unnamed (protein)
chain 1: B1 chain 1 with A97T, D99G, S101P, A102S, Y103W
chain 2: B1 chain 2
Kd: 210 nM

More lines, now with the values ahead:

Kd: 95.3 nM
B3: unnamed (protein)
chain 1: B1 chain 1 with A97T, S101P, A102S, A106G
chain 2: B1 chain 2

Kd: 59.9 nM
B5: unnamed (protein)
chain 1: B1 chain 1 with S101P, A102S, Y103W
chain 2: B1 chain 2

Kd: 51.7 nM
B6: unnamed (protein)
chain 1: B1 chain 1 with A97T, S101P, Y103W
chain 2: B1 chain 2

Kd: 106 nM
B8: unnamed (protein)
chain 1: B1 chain 1 with S101P, V109Y
chain 2: B1 chain 2

Kd: 84 nM
B10: unnamed (protein)
chain 1: B1 chain 1 with S101P
chain 2: B1 chain 2

Kd: 78.2 nM
B11: unnamed (protein)
chain 1: B1 chain 1 with A97T, S101P, Y103W, V109Y
chain 2: B1 chain 2

Kd: 79.8 nM
B12: unnamed (protein)
chain 1: B1 chain 1 with A97T, S101P, A102W
chain 2: B1 chain 2

Kd: 109 nM
B15: unnamed (protein)
chain 1: B1 chain 1 with A97T, S101P, V109I
chain 2: B1 chain 2

Kd: 68 nM
B16: unnamed (protein)
chain 1: B1 chain 1 with A97T, S101P, A102Y, V109Y
chain 2: B1 chain 2

Kd: 134 nM
B18: unnamed (protein)
chain 1: B1 chain 1 with S101P, A102S
chain 2: B1 chain 2
